The source of these data is PMC5432818, “Biochemical characterization of a functional recombinant aryl-alcohol dehydrogenase from Taiwanofungus camphorata” (Botanical Studies, 2014).

The series concerns COc1ccc(C=O)cc1OC. The series is described as follows: purified protein. The format is biochemical, Taiwanofungus camphoratus. Conditions: reduction, 0.2 mM NADPH fixed, 25 mM bis-tris-propane/HCl pH 6.0, 25 °C, veratraldehyde 0.1-0.4 mM.

Regarding “TcAAD (also printed TcADD) (Taiwanofungus camphoratus)”, the Km worked out at 250 µM.

A word on the Km: it is the concentration of substrate that gives half-maximal velocity.
